Here are results for two molecules from paper PMC12447488, “Targeting Both Monomer and Oligomer with Fibrinogen Efficiently Suppresses Amyloid Fibril Formation and Cell Toxicity of Amyloid β 1‑42” (ACS Chemical Neuroscience, 2025).

What all share (settings): both partners purified
The target in experiment [1] is T1, Amyloid β 1-42 monomer (UniProt P05067 672-713).
T1 construct: printed molecular weight 4512 g/mol; numbers count on: the Aβ peptide; read out with antibody 4G8 in the dot blot; also called Aβ42; Aβ42 monomer; source: bought: Peptide Institute, Inc. (Japan), used without further purification
Kind of experiment: far-Western, overlay or dot blot; Aβ42 20 μM incubated with bFg or hFg (0.03, 0.3, 3 μM) for 1 h at 37 °C in 50 mM phosphate/200 mM NaCl pH 7.4, then dotted; loss of the spot intensity of antibody 4G8 (monomer) or A11 (oligomer) taken as binding by steric hindrance; apparent Kd from fit or simulation with eq S6.

Experiment [2] deals with T2, Amyloid β 1-42 oligomer (UniProt P05067 672-713).
T2 construct: numbers count on: the Aβ peptide; granular particles of 5.0 ± 0.9 nm height in AFM; read out with antibody A11 in the dot blot; also called Aβ42 oligomer; Aβ oligomers; source: formed from bought Aβ42 (Peptide Institute, Inc.) at 20 μM during 1 h at 37 °C in 50 mM phosphate/200 mM NaCl (pH 7.4); copies: 12
Described as above.

Experiment [3] has as its target T1, Amyloid β 1-42 monomer. Kind of experiment: far-Western, overlay or dot blot + AUC; number of binding sites on bFg worked out from the concentrations of Aβ42 species (18 μM monomer, about 0.17 μM oligomer) and of bFg at which the interaction was seen.
Experiment [4] concerns the target T2, Amyloid β 1-42 oligomer. The experiment is described as above.

A value given as a limit tells only on which side of the number the result lay.

B1: human fibrinogen (complex)
chain 1: ADSGEGDFLAEGGGVRGPRVVERHQSACKDSDWPFCSDEDWNYKCPSGCRMKGLIDEVNQDFTNRINKLKNSLFEYQKNNKDSHSLTTNIMEILRGDFSSANNRDNTYNRVSEDLRSRIEVLKRKVIEKVQHIQLLQKNVRAQLVDMKRLEVDIDIKIRSCRGSCSRALAREVDLKDYEDQQKQLEQVIAKDLLPSRDRQHLPLIKMKPVPDLVPGNFKSQLQKVPPEWKALTDMPQMRMELERPGGNEITRGGSTSYGTGSETESPRNPSSAGSWNSGSSGPGSTGNRNPGSSGTGGTATWKPGSSGPGSTGSWNSGSSGTGSTGNQNPGSPRPGSTGTWNPGSSERGSAGHWTSESSVSGSTGQWHSESGSFRPDSPGSGNARPNNPDWGTFEEVSGNVSPGTRREYHTEKLVTSKGDKELRTGKEKVTSGSTTTTRRSCSKTVTKTVIGPDGHKEVTKEVVTSEDGSDCPEAMDLGTLSGIGTLDGFRHRHPDEAAFFDTASTGKTFPGFFSPMLGEFVSETESRGSESGIFTNTKESSSHHPGIAEFPSRGKSSSYSKQFTSSTSYNRGDSTFESKSYKMADEAGSEADHEGTHSTKRGHAKSRPV
chain 2: QGVNDNEEGFFSARGHRPLDKKREEAPSLRPAPPPISGGGYRARPAKAAATQKKVERKAPDAGGCLHADPDLGVLCPTGCQLQEALLQQERPIRNSVDELNNNVEAVSQTSSSSFQYMYLLKDLWQKRQKQVKDNENVVNEYSSELEKHQLYIDETVNSNIPTNLRVLRSILENLRSKIQKLESDVSAQMEYCRTPCTVSCNIPVVSGKECEEIIRKGGETSEMYLIQPDSSVKPYRVYCDMNTENGGWTVIQNRQDGSVDFGRKWDPYKQGFGNVATNTDGKNYCGLPGEYWLGNDKISQLTRMGPTELLIEMEDWKGDKVKAHYGGFTVQNEANKYQISVNKYRGTAGNALMDGASQLMGENRTMTIHNGMFFSTYDRDNDGWLTSDPRKQCSKEDGGGWWYNRCHAANPNGRYYWGGQYTWDMAKHGTDDGVVWMNWKGSWYSMRKMSMKIRPFFPQQ
chain 3: YVATRDNCCILDERFGSYCPTTCGIADFLSTYQTKVDKDLQSLEDILHQVENKTSEVKQLIKAIQLTYNPDESSKPNMIDAATLKSRKMLEEIMKYEASILTHDSSIRYLQEIYNSNNQKIVNLKEKVAQLEAQCQEPCKDTVQIHDITGKDCQDIANKGAKQSGLYFIKPLKANQQFLVYCEIDGSGNGWTVFQKRLDGSVDFKKNWIQYKEGFGHLSPTGTTEFWLGNEKIHLISTQSAIPYALRVELEDWNGRTSTADYAMFKVGPEADKYRLTYAYFAGGDAGDAFDGFDFGDDPSDKFFTSHNGMQFSTWDNDNDKFEGNCAEQDGSGWWMNKCHAGHLNGVYYQGGTYSKASTPNGYDNGIIWATWKTRWYSMKKTTMKIIPFNRLTIGEGQQHHLGGAKQAGDV
modifications: Natural plasma hexamer (AαBβγ)2, about 340 kDa, disulfide-linked and N-glycosylated, fibrinopeptides A and B retained. Aα is the 610-residue plasma form (the paper gives αC as 221-610); mature 1-610 =
On to B1, for which the values for the Kd in experiment [1] and in experiment [2] were not below 100000 nM and 1400 ± 200 nM, respectively.

B2: bovine fibrinogen (complex)
chain 1: EDGSDPPSGDFLTEGGGVRGPRLVERQQSACKETGWPFCSDEDWNTKCPSGCRMKGLIDEVDQDFTSRINKLRDSLFNYQKNSKDSNTLTKNIVELMRGDFAKANNNDNTFKQISEDLRSRIEILRRKVIEQVQRIKVLQKNVRDQLVDMKRLEVDIDIKIRSCKGSCSRALEHKVDLEDYKNQQKQLEQVIAINLLPSRDIQYLPLIKMSTITGPVPREFKSQLQEAPLEWKALLEMQQTKMVLETFGGDGHARGDSVSQGTGLAPGSPRKPGTSSIGNVNPGSYGPGSSGTWNPGRPEPGSAGTWNPGRPEPGSAGTWNPGRPEPGSAGTWNPGRPEPGSAGTWNPGRPEPGSAGTWNTGSSGSSSFRPDSSGHGNIRPSSPDWGTFREEGSVSSGTKQEFHTGKLVTTKGDKELLIDNEKVTSGHTTTTRRSCSKVITKTVTNADGRTETTKEVVKSEDGSDCGDADFDWHHTFPSRGNLDDFFHRDKDDFFTRSSHEFDGRTGLAPEFAALGESGSSSSKTSTHSKQFVSSSTTVNRGGSAIESKHFKMEDEAESLEDLGFKGAHGTQKGHTKARPARGIHTSPLGEPSLTP
chain 2: QFPTDYDEGQDDRPKVGLGARGHRPYDKKKEEAPSLRPVPPPISGGGYRARPATATVGQKKVERKPPDADGCLHADPDLGVLCPTGCKLQDTLVRQERPIRKSIEDLRNTVDSVSRTSSSTFQYITLLKNMWKGRQNQVQDNENVVNEYSSHLEKHQLYIDETVKNNIPTKLRVLRSILENLRSKIQKLESDVSTQMEYCRTPCTVTCNIPVVSGKECEKIIRNEGETSEMYLIQPEDSSKPYRVYCDMKTEKGGWTVIQNRQDGSVDFGRKWDPYKQGFGNIATNAEGKKYCGVPGEYWLGNDRISQLTNMGPTKLLIEMEDWKGDKVTALYEGFTVQNEANKYQLSVSKYKGTAGNALIEGASQLVGENRTMTIHNSMFFSTYDRDNDGWKTTDPRKQCSKEDGGGWWYNRCHAANPNGRYYWGGAYTWDMAKHGTDDGVVWMNWQGSWYSMKKMSMKIRPYFPEQ
chain 3: YVATRDNCCILDERFGSYCPTTCGIADFLNNYQTSVDKDLRTLEGILYQVENKTSEARELVKAIQISYNPDQPSKPNNIESATKNSKSMMEEIMKYETLISTHESTIRFLQEVYNSNSQKIVNLRDKVVQLEANCQEPCQDTVKIHDVTGRDCQDVANKGAKESGLYFIRPLKAKQFLVYCEIDGSGNGWTVFQKRLDGSLDFKKNWIQYKEGFGHLSPTGTGNTEFWLGNEKIHLISTQSSIPYVLRIQLEDWNGRTSTADYASFKVTGENDKYRLTYAYFIGGDAGDAFDGYDFGDDSSDKFFTSHNGMQFSTWDSDNDKYDGNCAEQVGIGWWMNKCHAGHLNGVYYQGGTYSKTSTPNGYDNGIIWATWKSRWYSMKKTTMKIIPLNRLAIGEGQQHQLGGAKQVGVEHHVEIEYD
notes: fibrinogen Aα chain, bovine; fibrinogen Bβ chain, bovine; fibrinogen γ chain, bovine; About 340 kDa, six polypeptide chains (two Aα, two Bβ, two γ); also called bFg; source: bought: Wako Pure Chemical Industries (from plasma), purified via size-exclusion chromatography (monomer fractions); copies: 2 + 2 + 2
One may read the stoichiometry N as the number of molecules, sites or subunits per partner or assembly. Turning to B2, the “stoichiometry N” value in experiment [3] is not above 6; in experiment [4] it was not below 2. Further, the Kd in experiment [1] was approximately 1000 nM; in experiment [2], 200 ± 50 nM.
